Results as given in patent publication US11142588B2, “Polypeptides which bind C-X-C chemokine receptor type 4 (CXCR4) and methods of treating or reducing the risk of fibrosis and cancer” (AdAlta Limited, priority 2015, dated 2021).
Where “and” joins values, the source holds several entries; their conditions need not be identical. Equal values may be shown once.

Assays:
[1] = cited from earlier work; for bleomycin induced pulmonary fibrosis: Xu et al 2007
Ramos tumor cells = experiment: Apoptosis assay (annexin V / propidium iodide flow cytometry); assay type: cell-based, human; conditions: annexin V and propidium iodide double positive, 24 or 72 hours
Experimental: The ability of an i-body of the invention to induce apoptosis in Ramos tumor cells (a human Burkitt's lymphoma cell line) was examined in an apoptosis assay according to the methods as described in Mishra M et al (2011) J Cell Mol Med 15(11):2462-77. I-bodies were incubated with Ramos cells and examined by flow cytometry after 24 or 72 hours. The cells were stained for annexin V and propidium iodide which are classic markers for apoptosis. Cells which were double positive were assessed to have become apoptotic.

CXCR4 = CXCR4 (Homo sapiens, UniProt P61073); experiment: β-arrestin BRET assay, antagonist mode with 100 nM SDF-1; assay type: cell-based; design: expressed in transfected cells; host or cells: HEK293FT; conditions: for β-arrestin activity: various concentrations
Source text: (FIGS. 3A-3F and 14) BRET was used in this study to assess the real-time kinetic profiles resulting from any consequent increase in proximity, building upon the previously validated monitoring of GPCR/β-arrestin interactions utilizing BRET. BRET occurs between a complementary Renilla luciferase (Rluc) variant as donor and green fluorescent protein variant as acceptor. Upon Rluc-catalyzed oxidation of the coelenterazine substrate (such as coelenterazine h for first generation BRET (BRET) or EnduRen for extended BRET (eBRET), energy is transferred to the acceptor if within 10 nm, resulting in acceptor light emission peaking at a characteristic wavelength. BRET (3-arrestin assays were carried out as described previously (See, H. B., Seeber, R. M., Kocan, M., Eidne, K. A. and Pfleger, K. D. (2011) ‘Application of G protein-coupled receptor-heteromer identification technology to monitor beta-arrestin recruitment to G protein-coupled receptor heteromers’, Assay Drug Dev Technol, 9(1), 21-30, 10.1089/adt.2010.0336). CXCR4/Rluc8 cDNA constructs were generated from plasmids containing the respective receptor cDNA tagged with Rluc kindly provided by Aron Chakera (Oxford University, United Kingdom). The β-arrestin 2/Venus cDNA construct was prepared previously from pCS2-Venus kindly provided by Atsushi Miyawaki (RIKEN Brain Science Institute, Wako-city, Japan). BRET technology in cells transiently expressing CXCR4/Rluc8 and β-arrestin2/Venus in the presence of 100 nM SDF-1 agonist was evaluated in the presence of the CXCR4 agonist SDF-1/CXCL12 and the i-bodies. HEK293FT cells were maintained at 37° C., 5% CO2 in Complete Media (Dulbecco's modified Eagle's medium containing 0.3 mg/mL glutamine, 100 IU/mL penicillin, and […] streptomycin; Gibco) supplemented with 10% fetal calf serum (FCS) and […] Geneticin (Gibco). Transfections were carried out 24 h after seeding using Genejuice (Novagen) according to manufacturer's instructions. Cells were harvested with 0.05% Trypsin-EDTA (Gibco). HEK293FT cells were transfected using FuGene6 (Promega). 5 μM coelenterazine h (Promega) in HBSS was used as the luciferase substrate solution. Cells were harvested 24 h post-transfection in HEPES-buffered phenol red-free Complete Medium containing 5% FCS and added to a poly-L-lysine-coated white 96-well plate (Nunc). Dose-response curves were generated using BRET, with medium in the plate being replaced with PBS containing […] coelenterazine h (Molecular Probes) and assays carried out immediately. For these assays, 48 h post-transfection, the plate was incubated at […], 5% CO2 for 2 h with […] EnduRen (Promega) to ensure substrate equilibrium was reached. All BRET measurements were taken at 37° C. using the VICTOR Light plate reader with Wallac 1420 software (PerkinElmer). Filtered light emissions were sequentially measured at 400-475 and 520-540 nm. The BRET signal was calculated by subtracting the ratio of 520-540 nm emission over 400-475 nm emission for a vehicle-treated cell sample from the same ratio for a second aliquot of the same cells treated with agonist (in this instance in the presence of SDF-1 or CXCL12) and i-body (ADCX-99, ADCX-272, ACDX-6, ACDX-306, ADCX-668) at various concentrations. Data are mean±S.E.M. of four independent experiments carried out in duplicate.
Binding of the i-bodies to CXCR4 were examined in a β-Arrestin BRET assay as described in See, Heng B et al (2011) Assay and Drug Development Technologies 9(1):21-30. The i-bodes were examined at ten concentrations with and without 100 nM SDF-1 with the addition of ‘vehicle’ and ‘SDF-1+vehicle’ controls in order to characterise if the i-bodies are agonist or antagonists of CXCR4 activity.

[2] = target: T1, human CXCR4 (CXCR4 positive lipoparticles) (Homo sapiens, UniProt P61073); experiment: Biacore SPR kinetic binding to immobilised CXCR4 lipoparticles
T1 construct: purchased Integral Molecular LEV-101B
Experimental: (FIGS. 2A-2C, 5A-5C, 11A-11D, 17A-17B) Kinetic binding analysis of selected i-bodies with immobilized CXCR4 lipoparticles were performed at 25° C. using Biacore T200 instrument (GE Healthcare, Uppsala, Sweden). Streptavidin immobilization was performed in 1×HBS-P+ running buffer (10 mM HEPES, 150 mM NaCl, 0.05% [v/v] Tween-20). […] All binding experiments involving lipoparticles were performed with 1×HBS/BSA (10 mM HEPES, 150 mM NaCl, 1 mg/mL BSA) as instrument running buffer. […] In order to determine binding kinetics, serial dilutions (three-fold) of i-bodies diluted in 1×HBS/BSA were injected over immobilized lipoparticles with the association and dissociation phases monitored for 60 sec and 600 sec, respectively. A control measurement of the instrument running buffer (“zero-buffer” blank) solution was also included for double referencing purposes. Collected experimental data were processed using Scrubber software (www.biologic.com.au). Kinetic parameters (ka=association and kd=dissociation rate constants) and equilibrium dissociation constant (KD=kd/ka) were derived by fitting each set of experimental data to a Langmuir 1:1 binding model. All interaction measurements were performed in triplicate and the derived binding parameters reported as averaged values±standard deviation.

[3] = mouse, in vivo, iv, 2 mg/kg
Experimental: A series of blood samples from all mice (0.3 mL, 2 time point/mouse 3/group/time point) were collected following dosing as follows:
For this purpose, each mouse (CD-1 mouse) was bled via the saphenous vein or under isoflurane anaesthesia by cardiac puncture and the samples collected into tubes containing the anticoagulant, K2-EDTA. Tubes were placed on wet ice pending processing. Following its last blood sampling, each animal was euthanized by cervical dislocation and discarded without further examination.
Following collection, the samples were centrifuged (approximately 4° C.) and the resulting plasma was recovered in two separate aliquots and stored frozen (60° C.) in labeled Protein LoBind 1.5 mL tubes (Eppendorf, cat no. 022431081).

CCL2 and CCL5 protein = experiment: CCL2, CCL5, CXCL12 ELISA of fibroblast conditioned supernatants; assay type: cell-based, human; conditions: 48 hours
Source text: Various reports indicate that CXCR4 signals in conjunction with other chemokine receptors, including CCR2.

[4] = CXCR4 expressed on lipoparticles (Table 4)

CXCR4, sequence (P61073 whole entry): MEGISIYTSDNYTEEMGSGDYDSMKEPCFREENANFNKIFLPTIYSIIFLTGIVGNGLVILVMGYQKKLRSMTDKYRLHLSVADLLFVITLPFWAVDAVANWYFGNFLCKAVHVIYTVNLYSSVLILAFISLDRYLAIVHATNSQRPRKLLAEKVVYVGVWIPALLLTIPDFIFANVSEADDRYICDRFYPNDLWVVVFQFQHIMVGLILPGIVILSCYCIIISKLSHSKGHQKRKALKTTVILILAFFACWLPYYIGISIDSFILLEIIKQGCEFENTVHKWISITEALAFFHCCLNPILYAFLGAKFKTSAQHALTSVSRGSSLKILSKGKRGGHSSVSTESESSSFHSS
T1 sequence (P61073 whole entry): as above

c1cnc(NCc2ccc(CNc3ncccn3)cc2)nc1 [MSX-122]
development of pulmonary fibrosis in irradiated mice ([1]; Shu et al 2013): significant reductions in development of pulmonary fibrosis | bleomycin induced pulmonary fibrosis [1]: completely preventing bleomycin-induced lung fibrosis

C/C=C(/C)C(=O)O[C@H]1C(C)=C2[C@H]([C@@H]1OC(=O)CCCCCCC)[C@@](C)(OC(C)=O)C[C@H](OC(=O)CCC)[C@@]1(O)[C@H]2OC(=O)[C@@]1(C)O [Thapsigargin, reference compound]
induction of apoptosis in Ramos cells (Ramos tumor cells): expected level of apoptosis

TN14003
bleomycin induced pulmonary fibrosis [1]: blocks development of pulmonary fibrosis

B1: ADCX-668: CXCR4 binding i-body, SEQ ID NO: 26 (protein)
chain: LQVDIVPSQGEISVGESKFFLCQVAGTIWYEQISWFTPNGEKLTPNQQRISVVWNDDSSSTLTIYNANIDDAGIYKCVVWTRPVTSSMHEATVNVKIFQ
modifications: protein sequence encoding ADCX-668
β-arrestin activity (CXCR4): some degree of inhibition

B2: AM3-920: affinity matured CXCR4 i-body, SEQ ID NO: 44 (protein)
chain: LQVDIVPSQGEISVGESKFFLCQVAGSGSGIRISWFSPNGEKLTPNQQRISVVWNDDSSSTLTIYNANIDDAGIYKCVVWRTGGYRHRYLVLGEATVNVKIFQ
modifications: protein sequence encoding AM3-920
Ka [2, 4]: 1.117e+06 M⁻¹ s⁻¹ and 1.26e+06 M⁻¹ s⁻¹ | dissociation rate constant (kd) [2, 4]: 8020 M⁻¹ s⁻¹ and 7410 M⁻¹ s⁻¹ | dissociation rate constant (kd) ([2]; off-rate, CXCR4 expressed on lipoparticles (Table 3)): 0.00817 | IC50 in β-Arrestin BRET assay (Antagonist mode in the presence of 100 nM SDF-1) (CXCR4; only an order of magnitude is printed in the cell): ~uM

B3: ADCX-306: CXCR4 binding i-body, SEQ ID NO: 29 (protein)
chain: LQVDIVPSQGEISVGESKFFLCQVAGFQEWVNWFSPNGEKLTPNQQRISVVWNDDSSSTLTIYNANIDDAGIYKCVVTMPHTLNNLDVRTEATVNVKIFQ
modifications: protein sequence encoding ADCX306
β-arrestin activity (CXCR4): some degree of inhibition

B4: AM3-114-Im7-FH-SA21: dual specificity i-body, AM3-114 with 18-residue HSA binding peptide SA21, SEQ ID NO: 80 (protein)
chain: MALQVDIVPSQGEISVGESKFFLCQVAGSLSGIRISWFSPNGEKLTPNQQRISVVWNDDSSSTLTIYNANIDDAGIYKCVVWRTGGYRHRYLVLGEATVNVKIFQGGGGSELKNSISDYTEAEFVQLLKEIEKENVAATDDVLDVLLEHFVKITEHPDGTDLIYYPSDNRDDSPEGIVKEIKEWRAANGKPGFKQGGGGGSDYKDDDDKGSGHHHHHHHHGGGGSRLIEDICLPRWGCLWEDD
modifications: protein sequence encoding AM3-114-Im7-FH-SA21 dual specificity ibody
AUC0-T [3]: 25266 ng·h/mL | Auc0-∞ [3]: 25544 ng·h/mL | C0 [3]: 23284 ng/mL | ClTOT [3]: 1.3049 mL/min/kg | Thalf [3]: 0.95 h | Tlast [3]: 6.00 h | VD [3]: 0.107571 L/kg | λZ [3]: 0.7279 h⁻¹

B5: 21H5-6H: control iBody 21H5 with 6 His tag (protein)
chain: LQVDIVPSQGEISVGESKFFLCQVAGDAKDKDISWFSPNGEKLTPNQQRISVVWNDDSSSTLTIYNANIDDAGIYKCVVTGSDAMSNYSYPISESEATVNVKIFQ
CCL5 levels in IPF lung fibroblasts (CCL2 and CCL5 protein): observed in one slow-IPF lung fibroblast line

B6: AM3-523-6H: AM3-523 with 6 His tag, containing the N-terminal sequence EAEA (protein)
chain: EAEALQVDIVPSQGEISVGESKFFLCQVAGSGSHMRISWFSPNGEKLTPNQQRISVVWNDDSSSTLTIYNANIDDAGIYKCVVWRVGGYRHRALVLGEATVNVKIFQ
modifications: left off: small tags and cut ends
induction of apoptosis in Ramos cells (Ramos tumor cells): strongly induce apoptosis
